In US20040171074A1, “Structures of substrate binding pockets of SCF complexes” (MOUNT SINAI HOSPITAL, priority 2002, published 2004):
Changes are numbered by the printed parent chain. Names and notes keep the numbering of the source. “Also recorded” adds a separate entry of the source.

How the values were obtained:
[1] = test system: phospho-Sic1; assay: P-Sic1 pull down: in vitro capture of phospho-Sic1 on immobilized wild type or mutant Cdc4-GST-Skp1, anti-Sic1 immunoblot; format: binding, yeast; settings: Sic1 phosphorylated with Cln2-Cdc28, captured onto GST-Skp1/Cdc4 resin, anti-Sic1 detection
Experimental: (§1) Mutational analysis of the CPD binding surface. Mutants were tested in vitro by ability to bind phosphorylated Sic1 and then captured onto GST-Skp1/Cdc4 resin and detected with anti-sic1 antibody. Mutants were tested in vivo by ability to degrade GAL1-SIC1 or various phosphorylation mutants. Sites are as follows: 3=Thr 33, Thr 45, Ser 76; 4=Thr 5, Thr 33, Thr 45, Ser 76; 5=Thr 2, Thr 5, Thr 33, Thr 45, Ser 76; 6=Thr 2, Thr 5, Thr 33, Thr 45, Ser 69, Ser 76; 7=Thr 2, Thr 5, Thr 33, Thr 45, Ser 69, Ser 76, Ser 80. GAL1-SIC1 plasmids were transformed into a cdc4Δ strain containing a copy of CDC4 on a TRP1 ARS CEN plasmid. Strains were incubated for 2 days at 30° C.
Bacterially expressed His6-Sic1 was phosphorylated with Cln2-Cdc28 kinase purified from baculovirus infected Sf9 cells as described before (Nature paper). 1 ug of WT or mutant Cdc4-GST-Skp1, immoblized on GSH-Sepharose resin, was incubated with 0.5 ug phospho-Sic1 at 4 C for 1 h and washed 4 times. Captured complexes were resolved on SDS-PAGE and Sic1 visualized by anti-Sic1 Western blotting and ECL. For IEF-2D analysis, several Sic1 phosphorylation reactions were carried out for different time periods to obtain a spectrum of Sic1 that were phosphorylated at different numbers of its nine CDK sites. This pool of phospho-Sic1 (2.5 ug) was incubated with 5 μg of WT or mutant Cdc4-GST-Skp1 as described above. Different phosphorylation states of Sic1 were separated by denaturing isoelectric focusing (IEF)-2D gel electrophoresis and visualized by anti-Sic1 Western blotting and ECL. IEF was performed using pH 3-10NL Immobiline gel strips and IPGphore IEF system (Amersham pharmacia).
(§2) Cdc4 functional assays. CDC4 mutant alleles were assessed for complementation of a cdc4A strain in a plasmid shuffle assay (Nash et al., 2001). Sensitivity to SIC1 dosage was determined by transformation with pMT837 (GAL1-SIC1) or pMT767 (GAL1-SIC1^T33V) and plating on glucose medium or galactose medium. For in vitro capture of phospho-Sic1 by Cdc4, 0.5 μg of bacterially-expressed ^HIS6Sic1 was phosphorylated with immobilized Cln2-Cdc28 kinase from baculovirus-infected Sf9 cells and then incubated with 1 μg of immobilized wild type or mutant Cdc4^263-744-GST-Skp1, at 4° C. for 1 hr, washed 4 times and visualized by anti-Sic1 immunoblot. For isoelectric focusing (IEF)-2D gel analyses, an evenly distributed pool of phospho-Sic1 isoforms was generated by combining different time points in a Sic1 phosphorylation reaction. 2.5 μg of the phospho-Sic1 pool was bound to 5 μg of immobilized wild type or mutant Cdc4^1-744-GST-Skp1. Captured isoforms were separated by denaturing IEF-2D gel electrophoresis using pH3-10NL Immobiline gel strips (Amersham) and visualized by anti-Sic1 immunoblot. Alternatively, the pool of phospho-Sic1 isoforms was incubated in solution with a ubiquitination reaction mix containing ATP, ubiquitin, yeast E1, Cdc34 and either wild type or mutant SCF^Cdc4 complex, composed of a 1:1 ratio of bacterial Cdc4-GST-Skp1 and insect cell-produced Cdc53-Rbx1, at 30° C. for 1 h as previously described (Nash et al., 2001).

[2] = test system: cdc4Δ strain; assay: plasmid shuffle assay: complementation of a cdc4Δ strain by CDC4 alleles; format: cell-based, yeast; settings: viability of cdc4Δ strain on 5-FOA, 2 days at 30° C.
Experimental: (§3) All mutants on a TRP1 ARS CEN plasmid were transformed into a cdc4Δ strain (MT 1259) containing a wildtype copy of CDC4 on a URA3 ARS CEN plasmid. Cells were plated on either Trp^−Ura^− or 5-FOA medium for 2 days at 30° C. Viable cells on 5-FOA were grown in Trp medium and transformed with either wild type GAL1-SIC1, GAL1-SIC T45A, or GAL1-SIC T33V on a LEU2 ARS CEN pasmid. Cells were then plated on Leu- Trp-plates containing either glucose or galactose and incubated for 2 days at 30° C.
as §2

[3] = target: T1, Skp1 (Saccharomyces cerevisiae, UniProt P52286); assay: Skp1 binding in vitro (pull down); parameters: species or system yeast
T1 construct: GST (N); made in house; host or cells: bacteria
Excerpt: In order to probe the functional importance of amino acid residues on the highly conserved peptide binding surface, a panel of Cdc4 mutants (both single and double mutant) were generated and tested each for its ability to bind phospho Sic1 and Skp1 in vitro using a pull down assay and for its ability to substitute for wt-cdc4 in vivo using a cell viability assay. Of 12 single site mutants tested, only Arg 467. Arg485Ala Arg534Ala, and Trp 426 abolished both cell viability in vivo and phosphoSic1 binding in vitro. Together, these residues compose most of the interaction surface with the pThr, Pro CPD core. […] Presumably in the context of the full SCF complex in vivo this mutant is sufficiently well behaved to bind phospho Sic1.

[4] = test system: cdc4Δ strain overexpressing SIC1; assay: sensitivity to SIC1 dosage: GAL1-SIC1 overexpression in strains bearing CDC4 alleles; format: cell-based, yeast; settings: for gal Sic1T33V: GAL1-SIC1 T33V (partially stabilized Sic1); for gal Sic1T33V / gal Sic1T45A / gal Sic1 wt: galactose, 2 days at 30° C.; for gal Sic1T45A: GAL1-SIC1 T45A; for gal Sic1 wt: GAL1-SIC1 wild type; for viability / sensitivity to increased SIC1 dosage: Sic1 wt or stabilized Sic1(T33V) or Sic1(T45A) over-expressed under a galactose promoter
Experimental: as §1, §3
Since the cell viability assay nay be masking subtle functional roles for the conserved Cdc4 residues, function was assayed in vivo under more stringent conditions in which Sic1 wt or the stabilized mutants, Sic1 (T33V) or Sic1(T45A) are over-expressed under a galactose promoter. This should amplify defects in cdc4 function. Under these conditions, Trp 717, Tyr 548 and the double mutant K404D/R443D are lethal showing that these residues are in fact important for functions
as §2

T1 sequence (P52286 2-194 limits assumed): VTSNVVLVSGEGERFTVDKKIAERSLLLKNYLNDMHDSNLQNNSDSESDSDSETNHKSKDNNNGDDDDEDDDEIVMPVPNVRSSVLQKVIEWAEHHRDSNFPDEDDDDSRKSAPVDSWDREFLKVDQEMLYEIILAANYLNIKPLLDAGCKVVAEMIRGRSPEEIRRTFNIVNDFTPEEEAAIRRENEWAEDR

B1: R467A: mutant cdc4 polypeptide (protein)
chain: MGSFPLAEFPLRDIPVPYSYRVSGGIASSGSVTALVTAAGTHRNSSTAKTVETEDGEEDIDEYQRKRAAGSGESTPERSDFKRVKHDNHKTLHPVNLQNTGAASVDNDGLHNLTDISNDAEKLLMSVDDGSAAPSTLSVNMGVASHNVAAPTTVNAATITGSDVSNNVNSATINNPMEEGALPLSPTASSPGTTTPLAKTTKTINNNNNIADLIESKDSIISPEYLSDEIFSAINNNLPHAYFKNLLFRLVANMDRSELSDLGTLIKDNLKRDLITSLPFEISLKIFNYLQFEDIINSLGVSQNWNKIIRKSTSLWKKLLISENFVSPKGFNSLNLKLSQKYPKLSQQDRLRLSFLENIFILKNWYNPKFVPQRTTLRGHMTSVITCLQFEDNYVITGADDKMIRVYDSINKKFLLQLSGHDGGVWALKYAHGGILVSGSTDRTVRVWDIKKGCCTHVFKGHNSTVACLDIVEYKNIKYIVTGSRDNTLHVWKLPKESSVPDHGEEHDYPLVFHTPEENPYFVGVLRGHMASVRTVSGHGNIVVSGSYDNTLIVWDVAQMKCLYILSGHTDRIYSTIYDHERKRCISASMDTTIRIWDLENIWNNGECSYATNSASPCAKILGAMYTLQGHTALVGLLRLSDKFLVSAAADGSIRGWDANDYSRKFSYHHTNLSAITTFYVSDNILVSGSENQFNIYNLRSGKLVHANILKDADQIWSVNFKGKTLVAAVEKDGQSFLEILDFSKASKINYVSNPVNSSSSSLESISTSLGLTRTTIIP
P-Sic1 pull down [1]: no bind
P-Sic1 pull down ([1]; listed as Arg 467): abolished
P-Sic1 pull down ([1]; listed as Arg467Ala): unable to bind
shuffle [2]: dead
shuffle ([2]; listed as Arg 467): abolished
shuffle ([2]; listed as Arg467Ala): unable
Skp1 binding [3]: fully competent

B2: R485A: mutant cdc4 polypeptide (protein)
chain: B1 chain with A467R, R485A
P-Sic1 pull down [1]: no bind
P-Sic1 pull down ([1]; listed as Arg485Ala): abolished; also recorded: unable to bind
shuffle [2]: dead
shuffle ([2]; listed as Arg485Ala): abolished; also recorded: unable
Skp1 binding [3]: fully competent

B3: R534A: mutant cdc4 polypeptide (protein)
chain: B1 chain with A467R, R534A
P-Sic1 pull down [1]: no bind
P-Sic1 pull down ([1]; listed as Arg534Ala): abolished; also recorded: unable to bind
shuffle [2]: dead
shuffle ([2]; listed as Arg534Ala): abolished; also recorded: unable
Skp1 binding [3]: fully competent

B4: W717N: mutant cdc4 polypeptide (protein)
chain: B1 chain with A467R, W717N
P-Sic1 pull down [1]: bind
P-Sic1 pull down ([1]; listed as Trp717): fully competent
P-Sic1 pull down ([1]; listed as Trp717Asn): did not overtly affect
shuffle [2]: alive
shuffle ([2]; listed as Trp717): viable
gal Sic1T33V [4]: dead
gal Sic1T33V ([4]; listed as Trp717Asn): conferred sensitivity
gal Sic1T45A [4]: dead
gal Sic1 wt [4]: alive
viability / sensitivity to increased SIC1 dosage [4]: lethal

B5: V384N: mutant cdc4 polypeptide (protein)
chain: B1 chain with V384N, A467R
P-Sic1 pull down [1]: bind
P-Sic1 pull down ([1]; listed as Val384): fully competent
P-Sic1 pull down ([1]; listed as Val384Asn): indistinguishable from wild type
shuffle [2]: alive
shuffle ([2]; listed as Val384): viable
shuffle ([2]; listed as Val384Asn): indistinguishable from wild type
gal Sic1T33V [4]: alive
gal Sic1T45A [4]: dead
gal Sic1 wt [4]: alive
viability / sensitivity to increased SIC1 dosage [4]: indistinguishable from wild type

B6: R443D: mutant cdc4 polypeptide (protein)
chain: B1 chain with R443D, A467R
P-Sic1 pull down [1]: bind
P-Sic1 pull down ([1]; listed as Arg443Asp): indistinguishable from wild type
shuffle [2]: alive
shuffle ([2]; listed as Arg443Asp): indistinguishable from wild type
gal Sic1T33V [4]: alive
gal Sic1T45A [4]: dead
gal Sic1 wt [4]: alive
viability / sensitivity to increased SIC1 dosage [4]: indistinguishable from wild type
